Legend:
[1] = molecular target: human NGF (construct not stated) (human) (UniProt P01138); test: not stated; Kd for the antigen; method and data in Supplementary Table 2
MEDI1912 IgG (human) [2] = test: native MS; nESI-IMS-MS, 1 mg/mL dialysed into 150 mM ammonium acetate, pH 6; dimer estimated with respect to the monomer ion intensity
MEDI1912 IgG (human) [3] = test: AUC; sedimentation velocity, 1 mg/mL, 20 °C, 20 mM sodium succinate, 125 mM arginine, pH 6.0 or 150 mM ammonium acetate, pH 6; 28,000 rpm; SEDFIT
MEDI1912_STT (human) = test: SPR; Biacore 2000, HBS-EP buffer; 100 RU MEDI1912 or MEDI1912_STT IgG amine coupled to a C1 sensor chip; two-fold dilutions of βNGF (10 nM to 78 fM) at 50 µl/min, 300-3600 s dissociation; 1:1 Langmuir fit
MEDI1912 (human) = test: as above

Row | Kd [1] [pM] | dimer as percent of the monomer ion intensity (MEDI1912 IgG (human) [2]) [%] | stoichiometry N (MEDI1912 IgG (human) [2]) | percent dimer (MEDI1912 IgG (human) [3]) [%] | stoichiometry N (MEDI1912 IgG (human) [3]) | koff (MEDI1912_STT (human)) [s⁻¹] | kon (MEDI1912_STT (human)) [M⁻¹ s⁻¹] | koff (MEDI1912 (human)) [s⁻¹] | kon (MEDI1912 (human)) [M⁻¹ s⁻¹] | Substance
1 | 1.6 to 9.8 | 11.4 | < 4 | > 75 | 2 | – | – | – | – | MEDI1912 IgG (antibody)
2 | – | – | – | – | – | 3.2e-05 to 0.00015 | 1.8e+07 | 3.3e-05 to 0.0002 | 2.1e+07 | recombinant βNGF (R&D Systems) (from UniProt P01138 122-241) (ligand)
